# Measurements published in patent publication US5856148A, “Materials and methods for biosynthesis of serine and serine-related products” (priority 1991, dated 1999).
# B1: WT: wild-type E. coli 3-phosphoglycerate dehydrogenase (serA), C-terminal sequence SEQ ID NO: 2 (protein, UniProt P0A9T0 2-410, looked up)
# D-3-phosphoglycerate …: AKVSLEKDKIKFLLVEGVHQKALESLRAAGYTNIEFHKGALDDEQLKESIRDAHFIGLRSRTHLTEDVINAAEKLVAIGCFCIGTNQVDLDAAAKRGIPVFNAPFSNTRSVAELVIGELLLLLRGVPEANAKAHRGVWNKLAAGSFEARGKKLGIIGYGHIGTQLGILAESLGMYVYFYDIENKLPLGNATQVQHLSDLLNMSDVVSLHVPENPSTKNMMGAKEISLMKPGSLLINASRGTVVDIPALCDALASKHLAGAAIDVFPTEPATNSDPFTSPLCEFDNVLLTPHIGGSTQEAQENIGLEVAGKLIKYSDNGSTLSAVNFPEVSLPLHGGRRLMHIHENRPGVLTALNKIFAEQGVNIAAQYLQTSAQMGYVVIDIEADEDVAEKALQAMKAIPGTIRARLLY
# Tested on: 3-phosphoglycerate dehydrogenase (PGD)
# Assay: assay of PGD activity (relative catalytic activity)
# Format: biochemical, E. coli
# Text: While not critical to the invention, the assay of PGD activity is generally necessary in order to establish the degree of serine sensitivity of the altered enzyme. As is well known in the art, enzyme activity is a function of the total number of enzyme molecules and the catalytic activity of each molecule. Thus, in comparing the catalytic activity of PGD feedback variants, steps must be taken to adequately control for the relative number of PGD molecules for samples in which relative catalytic activity is to be compared. There are a number of ways in which this may be accomplished. However, since it is difficult to adequately establish the level of gene expression in cells transformed with truncated serA genes (due to decreased viability), the most suitable way to compare PGD activity produced from various constructs and the wild type is to chromosomally integrate the altered serA gene containing standard regulatory elements in a single copy, followed by harvesting the transformants and determination of the relative catalytic activity as compared to PGD from wild type cells.
# Any method suitable for the measurement of PGD activity may be employed. PGD activity may be measured through detection of either the forward or the reverse reaction by the method of John C. McKitrick and Lewis I. Pizer, J. Bacteriol., 141:235-245 (1980). […]
molecule,measurement,setting,value
B1,Units (relative catalytic activity),"Table 1, following chromosomal integration of the construct",0.05 Units
same,Units,"Table 1A, wildtype and mutated serA alleles",0.05 Units
